# Assay results reported in US20240376151A1, “STAPLED PEPTIDES AND METHODS THEREOF” (FOG PHARMACEUTICALS, INC., priority 2022, published 2024).
# Numbered stars: 1 amine (or outer) side, 2 acyl side, 3 side chain; on linkers, the order of the positions; unused ones are H or OH. Bridge positions count the residues as written; N and C are the ends. Ends that are not written are not given here. Phenylene(1,4-NHCOCH2)2 = O=C(C[*:1])Nc1ccc(NC(=O)C[*:2])cc1
# Experiments:
# [1] = target: CDK2 (Homo sapiens, UniProt P24941); test: Phage Library Screening with NGS, CDK2; format: binding; set-up: Full length CDK2 (residues 1-298) with an N-terminal GST-3C-6×his-TEV tag; GST-3C-6×his-TEV (N, cleaved yes); made in house; host or cells: Sf9 (Bac-to-Bac baculovirus); conditions: for phage screen counts, Target Concentration 10: CDK2, target concentration 10; for phage screen counts, Target Concentration 30: CDK2, target concentration 30; for phage screen counts, Target Concentration 100: CDK2, target concentration 100; for phage screen counts, Target Concentration 300: CDK2, target concentration 300
# [2] = target: T1, PPIA (Homo sapiens, UniProt P62937); test: Phage Library Screening with NGS, PPIA; format: binding
# T1 construct: Full length PPIA (residues 1-165) with an N-terminal 6×his-yBBR-TEV tag; 6×his-yBBR-TEV (N); made in house; host or cells: E. coli BL21 (DE3) CodonPlus RIPL
# T1 sequence (P62937 whole entry, the tested form may be a part): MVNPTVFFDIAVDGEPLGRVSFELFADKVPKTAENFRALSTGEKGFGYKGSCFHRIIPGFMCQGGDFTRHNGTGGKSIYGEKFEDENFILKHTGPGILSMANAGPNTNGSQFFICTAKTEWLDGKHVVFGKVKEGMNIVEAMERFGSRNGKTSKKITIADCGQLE
# [3] = CDK2, target concentration 1000, first column
# [4] = CDK2, target concentration 1000, second column
# [5] = target concentration 1000, first column
# [6] = target concentration 1000, second column
"phage screen counts, Target Concentration 10 [1]","phage screen counts, Target Concentration 30 [1]","phage screen counts, Target Concentration 100 [1]","phage screen counts, Target Concentration 300 [1]","phage screen counts, Target Concentration 1000 [1, 3]","phage screen counts, Target Concentration 1000 [1, 4]","phage screen counts, Target Concentration 10 [2]","phage screen counts, Target Concentration 30 [2]","phage screen counts, Target Concentration 100 [2]","phage screen counts, Target Concentration 300 [2]","phage screen counts, Target Concentration 1000 [2, 5]","phage screen counts, Target Concentration 1000 [2, 6]",Sequence
0,0,0,4,7,408,–,–,–,–,–,–,"CLDAFFACER (linker 1-8 via Phenylene(1,4-NHCOCH2)2 (inferred); not fully specified (C-terminus))"
0,0,0,0,90,50,–,–,–,–,–,–,"CLSAFFMCSS (linker 1-8 via Phenylene(1,4-NHCOCH2)2 (inferred); not fully specified (C-terminus))"
29,0,0,0,111,330,–,–,–,–,–,–,"CLSAFFSCTY (linker 1-8 via Phenylene(1,4-NHCOCH2)2 (inferred); not fully specified (C-terminus))"
0,0,0,62,76,90,–,–,–,–,–,–,"DPAWWECIVAALECSDR (linker 7-14 via Phenylene(1,4-NHCOCH2)2 (inferred))"
0,0,73,973,909,998,–,–,–,–,–,–,"DPAWWMCTIAAIECETT (linker 7-14 via Phenylene(1,4-NHCOCH2)2 (inferred))"
0,0,13,39,119,102,–,–,–,–,–,–,"DPAWWRCSIAAMECHHD (linker 7-14 via Phenylene(1,4-NHCOCH2)2 (inferred))"
0,12,8,262,162,409,–,–,–,–,–,–,"DPAWWRCVVAALDCVDY (linker 7-14 via Phenylene(1,4-NHCOCH2)2 (inferred))"
0,0,0,39,87,90,–,–,–,–,–,–,"DPAWWSCVIAAMECQDI (linker 7-14 via Phenylene(1,4-NHCOCH2)2 (inferred))"
–,–,–,–,–,–,0,0,0,14,46,22,PFCHIEAYYCW
–,–,–,–,–,–,0,0,0,26,21,45,PHDCHVNAWYC
–,–,–,–,–,–,0,0,0,1,12,12,PNCHVEAWYCI
–,–,–,–,–,–,0,1,8,68,98,63,PNCHVEAYFCM
–,–,–,–,–,–,0,0,1,8,10,7,PNCHVMAYWCW
–,–,–,–,–,–,0,0,0,0,10,29,PTCHVQAWYCW
–,–,–,–,–,–,0,0,0,0,20,35,PYDCHIAAWMC

# More lines, now with the values behind:
Sequence,"phage screen counts, Target Concentration 10 [1]","phage screen counts, Target Concentration 30 [1]","phage screen counts, Target Concentration 100 [1]","phage screen counts, Target Concentration 300 [1]","phage screen counts, Target Concentration 1000 [1, 3]","phage screen counts, Target Concentration 1000 [1, 4]","phage screen counts, Target Concentration 10 [2]","phage screen counts, Target Concentration 30 [2]","phage screen counts, Target Concentration 100 [2]","phage screen counts, Target Concentration 300 [2]","phage screen counts, Target Concentration 1000 [2, 5]","phage screen counts, Target Concentration 1000 [2, 6]"
"DPAWWHCSIAALECHTT (linker 7-14 via Phenylene(1,4-NHCOCH2)2 (inferred))",0,18,25,216,195,358,–,–,–,–,–,–
"DPAWWHCVIAALDCETQ (linker 7-14 via Phenylene(1,4-NHCOCH2)2 (inferred))",0,15,5,93,119,141,–,–,–,–,–,–
"DPAWWRCSIAAVDCEMQ (linker 7-14 via Phenylene(1,4-NHCOCH2)2 (inferred))",0,0,0,93,238,217,–,–,–,–,–,–
"DPAWWRCSVAAIDCHWN (linker 7-14 via Phenylene(1,4-NHCOCH2)2 (inferred))",0,10,3,93,65,230,–,–,–,–,–,–
"DPAWWTCIIAALECEEQ (linker 7-14 via Phenylene(1,4-NHCOCH2)2 (inferred))",0,0,51,193,195,102,–,–,–,–,–,–
"DPAWWTCSVAAIQCWDS (linker 7-14 via Phenylene(1,4-NHCOCH2)2 (inferred))",0,0,10,69,119,243,–,–,–,–,–,–
"DPAWWVCAIAAIECSDV (linker 7-14 via Phenylene(1,4-NHCOCH2)2 (inferred); not fully specified (N-terminus, C-terminus))",38,634,2330,12368,7673,8315,–,–,–,–,–,–
"DPAWWVCAIAAMDCHEQ (linker 7-14 via Phenylene(1,4-NHCOCH2)2 (inferred))",0,0,0,139,216,422,–,–,–,–,–,–
PDCHVAAYICY,–,–,–,–,–,–,0,0,3,38,54,44
PECHVEAYFCE,–,–,–,–,–,–,0,0,0,0,24,22
PNCHLYAWECY,–,–,–,–,–,–,0,0,0,4,5,19
PTCHIDAWVCY,–,–,–,–,–,–,0,0,0,12,18,26
PTCHIHAYHCY,–,–,–,–,–,–,0,0,3,5,31,8
